Measurements taken from the MegaScale stability set (Tsuboyama et al. 2023).

B1: 6NMW (parent)
chain: QGDIVVALYPYDGIHPDDLSFKKGEKMKVLEEHGEWWKAKSLLTKKEGFIPSNYVAKLN

Variants of: B1
Test: folding stability dG (cDNA display proteolysis); higher = more stable
Conditions: PBS, room temperature

| Variant | folding stability dG [kcal/mol] |
| --- | --- |
| S52Q | 3.31 |
| S52H | 2.96 |
| S52A | 4.05 |
| S52W | 3.1 |
| S52Y | 3.08 |
| S52M | 3.52 |
| S52C | 3.84 |
| S52I | 2.91 |
| S52F | 2.85 |
| S52N | 2.58 |
| S52D | 1.16 |
| S52G | 2.51 |
| S52L | 2 |
| S52R | 4.29 |
| S52V | 3.02 |
| S52K | 4.84 |
| S52E | 1.64 |
| S52P | 3.65 |
| S52T | 2.23 |
| F49H | 1.88 |
| F49P | -0.719 |
| F49T | 2.25 |

| Variant | folding stability dG [kcal/mol] |
| --- | --- |
| F49W | 4.88 |
| F49I | 2.63 |
| F49S | 1.94 |
| F49A | 1.48 |
| F49M | 4.22 |
| F49G | 0.912 |
| F49D | 1.19 |
| F49Q | 2.25 |
| F49L | 3.4 |
| F49C | 3.83 |
| F49N | 3.4 |
| F49K | 2.81 |
| F49R | 3.83 |
| F49V | 2.3 |
| F49E | 0.945 |
| I50V | 2.59 |
| I50D | -0.59 |
| I50C | 0.571 |
| I50W | -0.594 |
| I50A | 0.132 |
| I50F | 2.01 |
| I50Y | -0.106 |

| Variant | folding stability dG [kcal/mol] |
| --- | --- |
| I50M | 0.656 |
| I50L | 1.58 |
| I50P | -0.401 |
| P51D | 1.08 |
| P51T | -0.429 |
| P51Q | 1.09 |
| P51M | 1.59 |
| P51A | 0.249 |
| P51N | 2.28 |
| P51I | 0.759 |
| P51L | 1.54 |
| P51Y | 1.26 |
| P51E | 0.647 |
| P51F | 1.25 |
| P51R | 1.7 |
| P51S | 1.19 |
| P51V | -0.225 |
| P51W | 1.33 |
| P51K | 1.62 |
| P51G | 0.115 |
| P51C | 2.34 |
| P51H | 1.83 |

| Variant | folding stability dG [kcal/mol] |
| --- | --- |
| V55H | -0.417 |
| V55E | -0.519 |
| V55G | 0.112 |
| V55L | 1.18 |
| V55F | 4.1 |
| V55C | 2.7 |
| V55P | -0.707 |
| V55S | -0.255 |
| V55T | 1.68 |
| V55I | 2.12 |
| V55M | 1.6 |
| V55K | 0.066 |
| V55A | 1.47 |
| V55Y | 0.703 |
| V55W | 0.199 |
| G48C | 0.255 |
| G48F | 0.034 |
| G48W | -0.877 |
| G48S | -0.544 |
| G48H | -0.819 |
| G48Y | 0.585 |
| G48K | 0.081 |

| Variant | folding stability dG [kcal/mol] |
| --- | --- |
| G48A | -0.512 |
| G48N | -0.967 |
| N59P | 3.88 |
| N59R | 3.22 |
| N59F | 3.48 |
| N59T | 3.58 |
| N59D | 3.82 |
| N59C | 4.64 |
| N59L | 3.64 |
| N59G | 4.04 |
| N59S | 4.06 |
| N59A | 3.8 |
| N59H | 3.98 |
| N59E | 3.86 |
| N59M | 3.64 |
| N59W | 3.08 |
| N59V | 3.95 |
| N59Q | 3.56 |
| N59I | 4 |
| N59K | 3.53 |
| N59Y | 3.57 |
| E47H | 2.22 |

| Variant | folding stability dG [kcal/mol] |
| --- | --- |
| E47R | 2.28 |
| E47F | 2.36 |
| E47W | 2.14 |
| E47G | 1.26 |
| E47A | 2.77 |
| E47L | 2.59 |
| E47I | 4.37 |
| E47K | 2.55 |
| E47M | 3.2 |
| E47Y | 2.25 |
| E47V | 4.3 |
| E47N | 1.81 |
| E47D | 1.89 |
| E47S | 3.47 |
| E47C | 3.83 |
| E47Q | 3.21 |
| N53M | 3.07 |
| N53L | 3 |
| N53P | 1.68 |
| N53H | 3.87 |
| N53Q | 3.5 |
| N53E | 3.19 |
